Reference: publication PMC10877566

Key:
Assay in all cases: bioluminescence (BRET) titration
[1] = system: LUMID-2C double-glycine (NL2C-2G-thiazole orange); conditions: apparent, in base pairs; PBS pH 7.4, 0.1% (w/v) BSA, 5% DMSO, 1 nM sensor, 30 min at room temperature, then NanoGlo substrate 1:1000
[2] = system: LUMID-2C double-lysine (NL2C-2K-thiazole orange); conditions: apparent, in base pairs; PBS pH 7.4, 0.1% (w/v) BSA, 5% DMSO, 1 nM sensor, 30 min at room temperature, then NanoGlo substrate 1:1000
[3] = system: LUMID-2C single-lysine (NL2C-1K-thiazole orange); conditions: apparent, in base pairs; PBS pH 7.4, 0.1% (w/v) BSA, 5% DMSO, 1 nM sensor, 30 min at room temperature, then NanoGlo substrate 1:1000
[4] = system: LUMID-1F (NL1F-thiazole orange conjugate); conditions: apparent, in base pairs; PBS pH 7.4, 0.1% (w/v) BSA, 5% DMSO, 1 nM sensor, 30 min at room temperature, then NanoGlo substrate 1:1000
[5] = system: LUMID-3C (NL3C-thiazole orange); conditions: apparent, in base pairs; Hill n not fixed to 1 per Methods; PBS pH 7.4, 0.1% (w/v) BSA, 5% DMSO, 1 nM sensor, 30 min at room temperature, then NanoGlo substrate 1:1000
[6] = system: LUMID-2F (NL2F-thiazole orange); conditions: apparent, in base pairs; Hill n 0.65 per Fig 3 legend; PBS pH 7.4, 0.1% (w/v) BSA, 5% DMSO, 1 nM sensor, 30 min at room temperature, then NanoGlo substrate 1:1000
[7] = system: LUMID-1C (NL1C-thiazole orange conjugate) C166S;G182C; conditions: apparent, in base pairs; PBS pH 7.4, 0.1% (w/v) BSA, 5% DMSO, 1 nM sensor, 30 min at room temperature, then NanoGlo substrate 1:1000
Chain of LUMID-1C (NL1C-thiazole orange conjugate) C166S;G182C (chain, as listed by the source C166S G182C): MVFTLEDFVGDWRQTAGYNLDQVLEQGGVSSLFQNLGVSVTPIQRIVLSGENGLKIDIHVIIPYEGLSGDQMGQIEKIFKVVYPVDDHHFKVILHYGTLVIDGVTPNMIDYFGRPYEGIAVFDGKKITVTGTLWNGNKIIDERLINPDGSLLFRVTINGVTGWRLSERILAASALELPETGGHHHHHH

[8] = system: LUMID-2C triple-lysine (NL2C-3K-thiazole orange); conditions: apparent, in base pairs; PBS pH 7.4, 0.1% (w/v) BSA, 5% DMSO, 1 nM sensor, 30 min at room temperature, then NanoGlo substrate 1:1000

Substance: sheared salmon sperm dsDNA (~2000 bp fragments)
- Kd [1]: 279 µM
- Kd [2]: 27 µM
- Kd [3]: 142 µM
- Kd [4]: 4100 µM
- Kd [5]: 2.1 µM
- Kd [6]: 43 µM
- Kd [7]: 3100 µM
- Kd [8]: 21 µM
